The assay addresses T1, labeled ACE2 (angiotensin-converting enzyme 2) (human, UniProt Q9BYF1 18-740).
T1 construct: also called ACE2 detection reagent
The assay can be described thus: labeled ACE2 on immobilized Mixed Panel, ECL.

T1 sequence (Q9BYF1 18-740 limits assumed): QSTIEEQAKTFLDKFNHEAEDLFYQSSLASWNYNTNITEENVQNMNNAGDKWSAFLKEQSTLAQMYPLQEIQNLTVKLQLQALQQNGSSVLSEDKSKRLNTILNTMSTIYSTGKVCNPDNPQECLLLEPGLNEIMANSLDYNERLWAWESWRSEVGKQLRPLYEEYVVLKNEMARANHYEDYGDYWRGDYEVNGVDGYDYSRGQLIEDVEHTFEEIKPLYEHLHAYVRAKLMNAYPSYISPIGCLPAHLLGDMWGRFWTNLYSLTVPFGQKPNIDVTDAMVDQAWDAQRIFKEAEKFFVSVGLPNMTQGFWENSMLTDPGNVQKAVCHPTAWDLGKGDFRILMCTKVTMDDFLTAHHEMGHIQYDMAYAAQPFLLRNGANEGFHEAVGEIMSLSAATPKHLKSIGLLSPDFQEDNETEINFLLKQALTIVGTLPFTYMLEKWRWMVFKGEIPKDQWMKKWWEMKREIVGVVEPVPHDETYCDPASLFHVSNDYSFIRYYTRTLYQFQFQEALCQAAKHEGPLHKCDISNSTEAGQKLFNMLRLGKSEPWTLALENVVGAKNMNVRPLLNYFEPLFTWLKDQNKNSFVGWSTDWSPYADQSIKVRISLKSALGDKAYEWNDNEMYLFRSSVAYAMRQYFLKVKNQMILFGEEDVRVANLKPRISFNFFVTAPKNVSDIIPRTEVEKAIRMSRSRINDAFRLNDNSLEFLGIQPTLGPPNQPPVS

B1: HCoV-HKU1 S protein (other)
chain: AVIGDFNCTNFAINDLNTTVPRISEYVVDVSYGLGTYYILDRVYLNTTILFTGYFPKSGANFRDLSLKGTTYLSTLWYQKPFLSDFNNGIFSRVKNTKLYVNKTLYSEFSTIVIGSVFINNSYTIVVQPHNGVLEITACQYTMCEYPHTICKSKGSSRNESWHFDKSEPLCLFKKNFTYNVSTDWLYFHFYQERGTFYAYYADSGMPTTFLFSLYLGTLLSHYYVLPLTCNAISSNTDNETLQYWVTPLSKRQYLLKFDNRGVITNAVDCSSSFFSEIQCKTKSLLPNTGVYDLSGFTVKPVATVHRRIPDLPDCDIDKWLNNFNVPSPLNWERKIFSNCNFNLSTLLRLVHTDSFSCNNFDESKIYGSCFKSIVLDKFAIPNSRRSDLQLGSSGFLQSSNYKIDTTSSSCQLYYSLPAINVTINNYNPSSWNRRYGFNNFNLSSHSVVYSRYCFSVNNTFCPCAKPSFASSCKSHKPPSASCPIGTNYRSCESTTVLDHTDWCRCSCLPDPITAYDPRSCSQKKSLVGVGEHCAGFGVDEEKCGVLDGSYNVSCLCSTDAFLGWSYDTCVSNNRCNIFSNFILNGINSGTTCSNDLLQPNTEVFTDVCVDYDLYGITGQGIFKEVSAVYYNSWQNLLYDSNGNIIGFKDFVTNKTYNIFPCYAGRVSAAFHQNASSLALLYRNLKCSYVLNNISLTTQPYFDSYLGCVFNADNLTDYSVSSCALRMGSGFCVDYNSPSSSSSRRKRRSISASYRFVTFEPFNVSFVNDSIESVGGLYEIKIPTNFTIVGQEEFIQTNSPKVTIDCSLFVCSNYAACHDLLSEYGTFCDNINSILDEVNGLLDTTQLHVADTLMQGVTLSSNLNTNLHFDVDNINFKSLVGCLGPHCGSSSRSFFEDLLFDKVKLSDVGFVEAYNNCTGGSEIRDLLCVQSFNGIKVLPPILSESQISGYTTAATVAAMFPPWSAAAGIPFSLNVQYRINGLGVTMDVLNKNQKLIATAFNNALLSIQNGFSATNSALAKIQSVVNSNAQALNSLLQQLFNKFGAISSSLQEILSRLDALEAQVQIDRLINGRLTALNAYVSQQLSDISLVKFGAALAMEKVNECVKSQSPRINFCGNGNHILSLVQNAPYGLLFMHFSYKPISFKTVLVSPGLCISGDVGIAPKQGYFIKHNDHWMFTGSSYYYPEPISDKNVVFMNTCSVNFTKAPLVYLNHSVPKLSDFESELSHWFKNQTSIAPNLTLNLHTINATFLDLYYEMNLIQES
notes: also called HCoV-HKU1 spike protein
With B1, the binding result is “no binding”.

These data come from patent publication US20230184768A1 (MESO SCALE TECHNOLOGIES, published 2023).
